We go through seven molecules from patent US20140287471A1, “VARIANT CBH I POLYPEPTIDES WITH REDUCED PRODUCT INHIBITION” (BP CORPORATION NORTN AMERICA INC., priority 2011, published 2014).

Like-named read-outs stand apart in the source and are kept apart here.

The nature of the assay: 4-MUL cellobiose tolerance/inhibition assay, dose-response IC50 (Example 2). The assay is classed as biochemical. The procedure: CBH I activity on was measured using the 4-MUL assay using gluconolactone to inhibit any BG activity. The fluorogenic 4-MUL substrate (SIGMA) was prepared at 100 mM concentration in DMSO. Assays were run in black 96-well-flat-bottomed plates (Costar) and 4-MU fluorescence was read on a BioTek H4 plate reader (ex/em 365/450 nm). Assay plates were filled with buffer (final concentrations of 100 mM MES, pH 6, 25 mM gluconolactone, with or without cellobiose; cellobiose concentrations are listed with appropriate data sets), to which enzyme mixture was added (10-30 μl, 5 μg/mL final) and then assays were initiated by addition of 4-MUL (0.5 mM final concentration in 100 μl total volume). Enzyme mixtures were either CBH I variants from harvested supernatants or standards. Standards included: a negative control, consisting of harvested supernatant from the CBH I knock-out strain; a positive control, consisting of wild-type CBH I from harvested supernatants; and, a commercial CBH I standard (E-CBHI from Megazymes). Activity standards were run by serial dilution of commercial CBH I from 40 to 0.02 μg/mL and 4-MU (SIGMA, prepared at 20 mM in DMSO) (in dilution increments of 2-fold; all dilutions were made using harvested supernatant from the knock-out control). Kinetic rates were monitored over the first 15 mins following 4-MUL addition; initial rates were calculated based on data in the linear range. After 1 hr, a final endpoint read was taken, both before and after reaction quenching (100 μL of 200 mM Sodium Carbonate, pH 10.0). Activity was calculated for kinetic and endpoint reads; background resulting from the CBH I knock-out supernatant remained negligible. 4MU standard curves and HPLC quantification values were used to calculate specific activity.
Tolerance/inhibition values represent activity ratios and/or percent activity remaining/percent activity decreased in the presence versus the absence of cellobiose. Tolerant variants show less inhibition in the presence of cellobiose as compared to wild type, where an activity ratio of 1 (with vs. without a given concentration of cellobiose) is equivalent to 0% inhibition by cellobiose, or 100% tolerance. The effect of cellobiose on CBH I variant performance was monitored by dose-response in the 4MUL assay. Dose-response curves were generated by assaying variant activity in the presence of 6-8 different cellobiose concentrations ranging up to 100 mM cellobiose. CBH I samples were diluted to 5 μg/mL final concentration or were used directly in the case of protein quantification levels below 5 μg/mL. Half maximal inhibitory concentration (IC50) values were determined by plotting 4MUL activity versus cellobiose concentration and fitting with a four parameter dose-response fitting algorithm, with zero activity (or 100% inhibition) constrained to background activity (as established by CBH I knockout values) and with automatic outlier elimination (on GraphPad Prism 5).
Harvested supernatants from active variant isolates were evaluated for cellobiose tolerance at 1 mM cellobiose in the 4-MUL activity assay. Table 8 lists the tolerance of variants at 1 mM. […] Additional cellobiose concentrations at 0.25, 5, 10, 50, and 100 mM were tested leading to full dose-response curves for which half maximal inhibitory concentration (IC50) values were generated (Table 8). The IC50 values support that the variant library has decreased product inhibition, or increased tolerance to cellobiose, when compared to the wild-type enzyme (WT IC50=0.03 mM; see first entry, Table 8).
In one example, the cellobiose tolerance of the library was explored in more detail by generating dose-response curves and determining half maximal inhibitory concentration (IC50) values, the point at which the enzyme is 50% inhibited.

Where [1] appears, read: Secondary screening, CBH I levels normalized to 5 μg/mL, cellobiose range 0.00085-100 mM, read-out: IC50.
[2] abbreviates: secondary screening, CBH I levels normalized to 5 μg/mL, cellobiose range 0.0001-100 mM, read-out: Average IC50.
[3] abbreviates: serine variants, unit not given in the legend, read-out: IC50 values (representative IC50 curves, FIG. 9).

As usually defined, the IC50 is the midpoint of a concentration-inhibition curve.

B1: 268N: CBH I variant with site 268 mutated to asparagine (protein, UniProt P62694 18-513, looked up, variant R268N)
Exoglucanase 1: QSACTLQSETHPPLTWQKCSSGGTCTQQTGSVVIDANWRWTHATNSSTNCYDGNTWSSTLCPDNETCAKNCCLDGAAYASTYGVTTSGNSLSIGFVTQSAQKNVGARLYLMASDTTYQEFTLLGNEFSFDVDVSQLPCGLNGALYFVSMDADGGVSKYPTNTAGAKYGTGYCDSQCPRDLKFINGQANVEGWEPSSNNANTGIGGHGSCCSEMDIWEANSISEALTPHPCTTVGQEICEGDGCGGTYSDNNYGGTCDPDGCDWNPYRLGNTSFYGPGSSFTLDTTKKLTVVTQFETSGAINRYYVQNGVTFQQPNAELGSYSGNELNDDYCTAEEAEFGGSSFSDKGGLTQFKKATSGGMVLVMSLWDDYYANMLWLDSTYPTNETSSTPGAVRGSCSTSSGVPAQVESQSPNAKVTFSNIKFGPIGSTGNPSGGNPPGGNRGTTTTRRPATTTGSSPGPTQSHYGQCGGIGYSGPTVCASGTTCQVLNPYYSQCL
Turning to B1, the IC50 is, setting by setting: under setting [1], 482 µM; (averaged IC50 values from Tables 8-11, read-out: measured IC50 of cellobiose (merged values)) 490 µM; under setting [2], 405 µM.

B2: R268D (protein, UniProt P62694 18-513, looked up, variant R268D)
Exoglucanase 1: QSACTLQSETHPPLTWQKCSSGGTCTQQTGSVVIDANWRWTHATNSSTNCYDGNTWSSTLCPDNETCAKNCCLDGAAYASTYGVTTSGNSLSIGFVTQSAQKNVGARLYLMASDTTYQEFTLLGNEFSFDVDVSQLPCGLNGALYFVSMDADGGVSKYPTNTAGAKYGTGYCDSQCPRDLKFINGQANVEGWEPSSNNANTGIGGHGSCCSEMDIWEANSISEALTPHPCTTVGQEICEGDGCGGTYSDNDYGGTCDPDGCDWNPYRLGNTSFYGPGSSFTLDTTKKLTVVTQFETSGAINRYYVQNGVTFQQPNAELGSYSGNELNDDYCTAEEAEFGGSSFSDKGGLTQFKKATSGGMVLVMSLWDDYYANMLWLDSTYPTNETSSTPGAVRGSCSTSSGVPAQVESQSPNAKVTFSNIKFGPIGSTGNPSGGNPPGGNRGTTTTRRPATTTGSSPGPTQSHYGQCGGIGYSGPTVCASGTTCQVLNPYYSQCL
Consider B2, for which the IC50 under setting [1] came out at 467 µM and the IC50 under setting [2] was determined as 431 µM.

B3: R268Y (protein, UniProt P62694 18-513, looked up, variant R268Y)
Exoglucanase 1: QSACTLQSETHPPLTWQKCSSGGTCTQQTGSVVIDANWRWTHATNSSTNCYDGNTWSSTLCPDNETCAKNCCLDGAAYASTYGVTTSGNSLSIGFVTQSAQKNVGARLYLMASDTTYQEFTLLGNEFSFDVDVSQLPCGLNGALYFVSMDADGGVSKYPTNTAGAKYGTGYCDSQCPRDLKFINGQANVEGWEPSSNNANTGIGGHGSCCSEMDIWEANSISEALTPHPCTTVGQEICEGDGCGGTYSDNYYGGTCDPDGCDWNPYRLGNTSFYGPGSSFTLDTTKKLTVVTQFETSGAINRYYVQNGVTFQQPNAELGSYSGNELNDDYCTAEEAEFGGSSFSDKGGLTQFKKATSGGMVLVMSLWDDYYANMLWLDSTYPTNETSSTPGAVRGSCSTSSGVPAQVESQSPNAKVTFSNIKFGPIGSTGNPSGGNPPGGNRGTTTTRRPATTTGSSPGPTQSHYGQCGGIGYSGPTVCASGTTCQVLNPYYSQCL
As to B3, the 50% inhibitory concentration (IC50) by setting is: under setting [1], 434 µM; under setting [2], 344 µM.

B4: R268I (protein, UniProt P62694 18-513, looked up, variant R268I)
Exoglucanase 1: QSACTLQSETHPPLTWQKCSSGGTCTQQTGSVVIDANWRWTHATNSSTNCYDGNTWSSTLCPDNETCAKNCCLDGAAYASTYGVTTSGNSLSIGFVTQSAQKNVGARLYLMASDTTYQEFTLLGNEFSFDVDVSQLPCGLNGALYFVSMDADGGVSKYPTNTAGAKYGTGYCDSQCPRDLKFINGQANVEGWEPSSNNANTGIGGHGSCCSEMDIWEANSISEALTPHPCTTVGQEICEGDGCGGTYSDNIYGGTCDPDGCDWNPYRLGNTSFYGPGSSFTLDTTKKLTVVTQFETSGAINRYYVQNGVTFQQPNAELGSYSGNELNDDYCTAEEAEFGGSSFSDKGGLTQFKKATSGGMVLVMSLWDDYYANMLWLDSTYPTNETSSTPGAVRGSCSTSSGVPAQVESQSPNAKVTFSNIKFGPIGSTGNPSGGNPPGGNRGTTTTRRPATTTGSSPGPTQSHYGQCGGIGYSGPTVCASGTTCQVLNPYYSQCL
Consider B4, for which the IC50 is, setting by setting: under setting [1], 484 µM; under setting [2], 320 µM.

B5: 268A/411S: CBH I variant with site 268 mutated to alanine and site 411 to serine (protein, UniProt P62694 18-513, looked up, variant R268A R411S)
Exoglucanase 1: QSACTLQSETHPPLTWQKCSSGGTCTQQTGSVVIDANWRWTHATNSSTNCYDGNTWSSTLCPDNETCAKNCCLDGAAYASTYGVTTSGNSLSIGFVTQSAQKNVGARLYLMASDTTYQEFTLLGNEFSFDVDVSQLPCGLNGALYFVSMDADGGVSKYPTNTAGAKYGTGYCDSQCPRDLKFINGQANVEGWEPSSNNANTGIGGHGSCCSEMDIWEANSISEALTPHPCTTVGQEICEGDGCGGTYSDNAYGGTCDPDGCDWNPYRLGNTSFYGPGSSFTLDTTKKLTVVTQFETSGAINRYYVQNGVTFQQPNAELGSYSGNELNDDYCTAEEAEFGGSSFSDKGGLTQFKKATSGGMVLVMSLWDDYYANMLWLDSTYPTNETSSTPGAVSGSCSTSSGVPAQVESQSPNAKVTFSNIKFGPIGSTGNPSGGNPPGGNRGTTTTRRPATTTGSSPGPTQSHYGQCGGIGYSGPTVCASGTTCQVLNPYYSQCL
As to B5, the concentration for half-maximal inhibition (IC50) under setting [3] was determined as 6800 µM.

B6: 411 S: CBH I variant with site 411 mutated to serine (protein, UniProt P62694 18-513, looked up, variant R411S)
Exoglucanase 1: QSACTLQSETHPPLTWQKCSSGGTCTQQTGSVVIDANWRWTHATNSSTNCYDGNTWSSTLCPDNETCAKNCCLDGAAYASTYGVTTSGNSLSIGFVTQSAQKNVGARLYLMASDTTYQEFTLLGNEFSFDVDVSQLPCGLNGALYFVSMDADGGVSKYPTNTAGAKYGTGYCDSQCPRDLKFINGQANVEGWEPSSNNANTGIGGHGSCCSEMDIWEANSISEALTPHPCTTVGQEICEGDGCGGTYSDNRYGGTCDPDGCDWNPYRLGNTSFYGPGSSFTLDTTKKLTVVTQFETSGAINRYYVQNGVTFQQPNAELGSYSGNELNDDYCTAEEAEFGGSSFSDKGGLTQFKKATSGGMVLVMSLWDDYYANMLWLDSTYPTNETSSTPGAVSGSCSTSSGVPAQVESQSPNAKVTFSNIKFGPIGSTGNPSGGNPPGGNRGTTTTRRPATTTGSSPGPTQSHYGQCGGIGYSGPTVCASGTTCQVLNPYYSQCL
As for B6, the IC50 under setting [1] amounted to 895 µM, the IC50 under setting [2] was found to be 762 µM and the IC50 under setting [3] is 890 µM.

B7: 268S: CBH I variant with site 268 mutated to serine (protein, UniProt P62694 18-513, looked up, variant R268S)
Exoglucanase 1: QSACTLQSETHPPLTWQKCSSGGTCTQQTGSVVIDANWRWTHATNSSTNCYDGNTWSSTLCPDNETCAKNCCLDGAAYASTYGVTTSGNSLSIGFVTQSAQKNVGARLYLMASDTTYQEFTLLGNEFSFDVDVSQLPCGLNGALYFVSMDADGGVSKYPTNTAGAKYGTGYCDSQCPRDLKFINGQANVEGWEPSSNNANTGIGGHGSCCSEMDIWEANSISEALTPHPCTTVGQEICEGDGCGGTYSDNSYGGTCDPDGCDWNPYRLGNTSFYGPGSSFTLDTTKKLTVVTQFETSGAINRYYVQNGVTFQQPNAELGSYSGNELNDDYCTAEEAEFGGSSFSDKGGLTQFKKATSGGMVLVMSLWDDYYANMLWLDSTYPTNETSSTPGAVRGSCSTSSGVPAQVESQSPNAKVTFSNIKFGPIGSTGNPSGGNPPGGNRGTTTTRRPATTTGSSPGPTQSHYGQCGGIGYSGPTVCASGTTCQVLNPYYSQCL
For the molecule B7, the IC50 reads like this: under setting [1], 452 µM; under setting [2], 406 µM; under setting [3], 450 µM.
